This is an account of results in paper PMC9898101.

In data set [1] the test system is MBP-ERS M487V (human). Briefly: EMSA. The following applies: 1 mM Mg2+; 5 ug/mL heparin (unit prefix not given); none (in vitro transcript); 25 mM Tris-HCl pH 7.5, 50 mM NaCl, 1 mM MgCl2, 1 mM DTT, 5 ug/mL heparin (prefix not given), 10 nM 32P-tRNA, room temperature 30 min; native 4-16% gel on ….
Data set [2] deals with MBP-ERS I212T (human). Kind of data set: EMSA. The following applies: 1 mM Mg2+; 5 ug/mL heparin (unit prefix not given); none (in vitro transcript); 25 mM Tris-HCl pH 7.5, 50 mM NaCl, 1 mM MgCl2, 1 mM DTT, 5 ug/mL heparin (prefix not given), 10 nM 32P-tRNA, room temperature 30 min; native 4-16% gel on ….

Usually Kd stands for the equilibrium constant for the complex coming apart.

For the substance human tRNAGlu(TTC), the results for the Kd in data set [1] and in data set [2] were 1200 nM and 2000 nM, respectively.
